The values below come from PMC9682730.

One experiment deals with FLAG-CHMP2B^Intron5 (UniProt Q9UQN3). Put plainly: co-IP; anti-FLAG M2 affinity gel IP from lysates of transfected HEK293 cells, overnight at 4 °C, washed with 50 mM Tris-HCl pH 7.4, 150 mM NaCl, FLAG elution; western blot with spastin antibody; four independent experiments, normalised to the abundance of CHMP2B^WT versus CHMP2B^Intron5. (In general: In western blotting, separated proteins are transferred to a membrane and probed.)

Experiment [1] has as its target spastin (human (endogenous in HEK293)) (UniProt Q9UBP0). Put plainly: co-IP; reverse IP with spastin antibody from transfected cells, western blot with FLAG antibody; three independent experiments.

Chain of FLAG-CHMP2B^Intron5 (Q9UQN3 whole entry): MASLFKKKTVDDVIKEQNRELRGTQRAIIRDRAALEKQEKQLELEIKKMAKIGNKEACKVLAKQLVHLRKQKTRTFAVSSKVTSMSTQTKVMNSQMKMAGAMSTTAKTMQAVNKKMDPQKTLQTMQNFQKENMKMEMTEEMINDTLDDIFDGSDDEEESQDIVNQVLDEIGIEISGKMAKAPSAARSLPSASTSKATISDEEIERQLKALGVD

Substance “spastin (from UniProt Q9UBP0 87-616) (natural protein)” returned a fold of spastin pulled down against CHMP2B^WT with FLAG-CHMP2B^Intron5 of 11 times.
In experiment [1], “FLAG-CHMP2B^Intron5 (from UniProt Q9UQN3 1-213) (natural protein)” gave a fold of CHMP2B pulled down by spastin antibody against CHMP2B^WT of 3.3 times.
